# In patent US20170342155A1 (Amgen, published 2017):
# T1: wild-type human CCR7 (pcDNA3.1 Neo-hCCR7, 20100121357) (human, UniProt P32248 25-378)
# T1 construct: Expressed on transfected 293T, CHO AM1/D or HEK293T cells; also called huCCR7; CCR7 receptor
# T1 sequence: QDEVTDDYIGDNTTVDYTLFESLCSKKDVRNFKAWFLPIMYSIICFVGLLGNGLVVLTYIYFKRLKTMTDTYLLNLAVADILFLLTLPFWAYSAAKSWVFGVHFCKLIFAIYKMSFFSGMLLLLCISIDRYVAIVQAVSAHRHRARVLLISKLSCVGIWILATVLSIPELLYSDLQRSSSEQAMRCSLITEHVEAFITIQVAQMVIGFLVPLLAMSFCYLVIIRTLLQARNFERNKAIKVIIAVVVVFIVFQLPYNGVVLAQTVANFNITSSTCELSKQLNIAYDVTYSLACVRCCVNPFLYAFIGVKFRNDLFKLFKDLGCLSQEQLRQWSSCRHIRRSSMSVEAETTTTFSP
# B1: antibody 6E1.2 (antibody, human IgG2, lambda, V domains shown)
# VH: QGQLVESGGGVVQPGRSLRLSCAASGFTFRSYGMHWVRQAPGKGLEWVAVIWYDGSKKYYADSVKGRFTISRDNSKNTLFLQMNSLRAEDTAVYYCARDGGIAAFLQDNWFDPWGQGTLVTVSS
# VL: SYELTQPPSVSVSPGQTASITCSGNKLGDKYASWYHQKPGQSPVLVIYQDNKRPSGIPERFSGSNSGNTATLTISGTQTMDEADYFCQAWDRTVVFGGGTKLTVLG
# notes: Human antibody from XenoMouse hybridoma; Light = 26 and heavy = 58 is inferred from the order of the listing
# Biological target: T1, wild-type human CCR7 (pcDNA3.1 …)
# Assay: hybridoma screening on cells expressing human CCR7
binder,measurement,value
B1,binding result,binds
